Measurements from paper PMC10899635, “Q586B2 is a crucial virulence factor during the early stages of Trypanosoma brucei infection that is conserved amongst trypanosomatids” (Nature Communications, 2024).

Target: recombinant Q586B2 protein (Trypanosoma brucei brucei)
Test: SEC; size exclusion chromatography after IMAC; uniform peak of approximately 55 kDa

recombinant Q586B2 protein (natural protein)
stoichiometry N: 4
